# B1: 02-140 peptide phage clone (ErbB2-binding peptide 16) (peptide)
# peptide: WTGWCLNPEESTWGFCSGYI
# notes: From an EC-1 biased peptide phage library; also called EBP-16
# B2: 02-135 peptide phage clone (ErbB2-binding peptide 17) (peptide)
# peptide: WTGWCFDDNHSTWGFCTGSF
# notes: From an EC-1 biased peptide phage library; also called EBP-17
# B3: 02-124 peptide phage clone (ErbB2-binding peptide 14) (peptide)
# peptide: WTGWCLNPEESTWGFCRSAG
# notes: From an EC-1 biased peptide phage library; also called EBP-14
# B4: 02-137 peptide phage clone (ErbB2-binding peptide 15) (peptide)
# peptide: WTGWCLSPEESTWGFCRSAG
# notes: From an EC-1 biased peptide phage library; also called EBP-15
# Target: T1, native, intact ErbB2 extracted from the membranes of human breast cancer cells (human, UniProt P04626 23-1255)
# T1 construct: Whole native receptor from cell membrane lysates, captured on plates by an antibody to the intracellular domain of ErbB2; Whole entry named; also called ErbB2 in solubilized membrane preparations / lysates of BT474 and SKBR3 cells
# Experiment: phage ELISA on captured membrane lysates
# Protocol: The above identified peptide phage specifically bind to native, intact ErbB2 extracted from the membranes of human breast cancer cells that overexpress ErbB2. Plates were coated with 1 μg of an antibody that binds to the intracellular domain of ErbB2, followed by 100 μl of solubilized membrane preparations from two different breast cancer cell lines that overexpress ErbB2 (BT474 and SKBR3), and probed with CB1 peptide-phage, control library phage, and 9G6 anti-ErbB2. MCF7 cells serve as a (relative) negative target control, as MCF7 breast cancer cells express only a low level of ErbB2.
row,Binder,binding result
1,B1,binds
2,B2,binds
3,B3,binds
4,B4,binds

# Target: T2, purified ErbB2 ECD-polyhistidine-tagged protein (human, UniProt P04626 23-653)
# T2 construct: also called CBECD; purified extracellular domain of ErbB2 with a His tag; not shown: polyhistidine tag
# Experiment: phage ELISA on coated CBECD, BSA as control
# Protocol: SfmECDAP labeled wells were plated with 250 ng of a purified ErbB2 ECD-alkaline phosphatase fusion protein; CBECD labeled wells were plated with 250 ng of a purified ErbB2 ECD-polyhistidine-tagged protein; bovine serum albumin (denoted BSA) was used as a negative target control. E12 and CB1 are peptide phage clones identified independently that display an identical (ErbB2-binding) peptide. E12CB1-NA peptide phage clones were constructed to present, with and without a glycine-glycine-alanine linker, a shortened form of the peptide. […] G78 is a peptide phage clone that binds strongly to the Grb7 SH2 domain, used here as a negative peptide phage control. Library phage also serve as a negative peptide phage control. 9G6 is an antibody to the ECD of ErbB2.
row,Binder,binding result
1,B1,binds
2,B2,binds
3,B3,binds
4,B4,binds

# — US20030216309A1 (UNIVERSITY OF VERMONT AND STATE AGRICULTURAL COLLEGE, published 2003)
